According to patent US20170152292A1 (FONDATION THE ARK, published 2017):
“And” between values parts separate entries of the source, which are not always exact repeats. Equal entries are not always repeated. Bridges are numbered along the chain shown (N, C = ends). Where no end group is shown, it is not given here. [ ]: non-standard residue; d: D form. R8 = C=CCCCCCC[C@@](C)(N)C(=O)O; S5 = C=CCCC[C@](C)(N)C(=O)O

Experiments:
[1] = biological target: monomeric N protein NK170AR185A-His (N^mono) (human respiratory syncytial virus (HRSV)) (UniProt P03418); test: SPR, GST-P[1-40] mutant captured on anti-GST antibody, N^mono injected
[2] = biological target: monomeric N protein NK170AR185A-His (N^mono) (human respiratory syncytial virus (HRSV)) (UniProt P03418); test: SPR (Proteon XPR36): GST-P[1-40] mutant captured on anti-GST antibody, N^mono injected, steady-state fit
[3] = biological target: monomeric N protein NK170AR185A-His (N^mono) (human respiratory syncytial virus (HRSV)) (UniProt P03418); test: SPR (ProteOn XPR36), GST-P[1-40] captured on anti-GST antibody, N^mono injected, steady-state fit; lower end of the range 4-5 µM
[4] = biological target: monomeric N protein NK170AR185A-His (N^mono) (human respiratory syncytial virus (HRSV)) (UniProt P03418); test: SPR (ProteOn XPR36), GST-P[1-40] captured on anti-GST antibody, N^mono injected, steady-state fit; upper end of the range 4-5 µM
[5] = biological target: RSV nucleoprotein N, wild type (N^0 form in cells) (human respiratory syncytial virus (HRSV)) (UniProt P03418); test: cell-based or functional assay
[6] = biological target: T1, monomeric N protein NK170AR185A-His (N^mono) (human respiratory syncytial virus (HRSV), UniProt P03418 1-391); test: fluorescence polarization competition: stapled peptide titrated against FAM-P(1-40) on recombinant N^mono
T1 construct: also called NK170AR185A-His protein; recombinant N^mono
T1 sequence: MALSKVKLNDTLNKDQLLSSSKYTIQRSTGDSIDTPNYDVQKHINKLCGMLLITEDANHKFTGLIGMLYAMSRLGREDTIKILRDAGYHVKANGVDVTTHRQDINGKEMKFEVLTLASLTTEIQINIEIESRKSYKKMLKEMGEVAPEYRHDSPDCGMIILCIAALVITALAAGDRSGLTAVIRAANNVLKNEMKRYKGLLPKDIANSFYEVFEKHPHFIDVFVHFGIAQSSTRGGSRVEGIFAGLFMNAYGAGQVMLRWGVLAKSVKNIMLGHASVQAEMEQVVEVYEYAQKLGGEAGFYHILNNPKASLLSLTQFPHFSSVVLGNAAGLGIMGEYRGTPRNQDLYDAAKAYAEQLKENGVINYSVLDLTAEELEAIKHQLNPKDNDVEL

GST-P[1-40] E2A (from UniProt P12579 1-40)
Kd [1]: 1.9 µM | fold increase of affinity against wild type GST-P[1-40] [1]: 2 fold

GST-P[1-40] E7A (from UniProt P12579 1-40)
Kd [2]: 11.1 µM | Kd [1]: > 10 µM and < 20 µM

GST-P[1-40] E22A (from UniProt P08515 1-218; P12579 1-40)
Kd [2]: 7.49 µM

GST-P[1-40] F4A (from UniProt P12579 1-40)
Kd [2]: 13.8 µM | Kd [1]: > 10 µM and < 20 µM

GST-P[1-40] F8A (from UniProt P12579 1-40)
Kd [1]: 41 µM

GST-P[1-40] G10A (from UniProt P12579 1-40)
Kd [2]: 5.1 µM | Kd [1]: > 5 µM and < 10 µM

GST-P[1-40] G26A (from UniProt P12579 1-40)
Kd [1]: 2.6 µM | fold increase of affinity against wild type GST-P[1-40] [1]: 2 fold

GST-P[1-40] H9A (from UniProt P12579 1-40)
Kd [2]: 4 µM

GST-P[1-40] I24A (from UniProt P12579 1-40)
Kd [2]: 16.4 µM | Kd [1]: > 10 µM and < 20 µM

GST-P[1-40] K3A (from UniProt P12579 1-40)
Kd [2]: 3.49 µM

GST-P[1-40] K25A (from UniProt P12579 1-40)
Kd [2]: 7.77 µM | Kd [1]: > 5 µM and < 10 µM

GST-P[1-40] L21A (from UniProt P08515 1-218; P12579 1-40)
Kd [2]: 17.6 µM

GST-P[1-40] P6A (from UniProt P12579 1-40)
Kd [2]: 4.89 µM

GST-P[1-40] S23A (from UniProt P12579 1-40)
Kd [2]: 4.5 µM

GST-P[1-40] wild type (from UniProt P12579 1-40)
Kd [3]: > 4 µM | Kd [4]: < 5 µM

RSV phosphoprotein P E7A (full length, plasmid pP) (from UniProt P12579 1-241)
luciferase activity in the HRSV minigenome replication assay [5]: 50 % reduction

RSV phosphoprotein P F4A (full length, plasmid pP) (from UniProt P12579 1-241)
luciferase activity in the HRSV minigenome replication assay [5]: 50 % reduction | polymerase activity in the HRSV minigenome replication assay [5]: 80 % reduction

RSV phosphoprotein P F8A (full length, plasmid pP) (from UniProt P12579 1-241)
luciferase activity in the HRSV minigenome replication assay [5]: 50 % reduction | polymerase activity in the HRSV minigenome replication assay [5]: 80 % reduction

RSV phosphoprotein P F20A (full length, plasmid pP) (from UniProt P12579 1-241)
luciferase activity in the HRSV minigenome replication assay [5]: 50 % reduction | polymerase activity in the HRSV minigenome replication assay [5]: 80 % reduction

RSV phosphoprotein P G10A (full length, plasmid pP) (from UniProt P12579 1-241)
luciferase activity in the HRSV minigenome replication assay [5]: 50 % reduction | polymerase activity in the HRSV minigenome replication assay [5]: 80 % reduction

RSV phosphoprotein P I24A (full length, plasmid pP) (from UniProt P12579 1-241)
luciferase activity in the HRSV minigenome replication assay [5]: 50 % reduction

RSV phosphoprotein P K25A (full length, plasmid pP) (from UniProt P12579 1-241)
luciferase activity in the HRSV minigenome replication assay [5]: 50 % reduction

RSV phosphoprotein P L21A (full length, plasmid pP) (from UniProt P12579 1-241)
luciferase activity in the HRSV minigenome replication assay [5]: 50 % reduction

Ac-EDANNKAT[R8]FLESIK[S5]KFAS (staple 9-16) [HEVS108]
binding result [6]: no binding
